Where no end group is shown, it is not given here. [ ]: non-standard residue; d: D form. The star is where a group is joined. Phe(F5) = N[C@@H](Cc1c(F)c(F)c(F)c(F)c1F)C(=O)O; Stearoyl = CCCCCCCCCCCCCCCCCC(=O)*; Palmitoyl = CCCCCCCCCCCCCCCC(=O)*; Myristoyl = CCCCCCCCCCCCCC(=O)*; PheCl2 = dichlorophenylalanine; Lauroyl = CCCCCCCCCCCC(=O)*; PheNO2 = nitrophenylalanine; Decanoyl = CCCCCCCCCC(=O)*; NMeA = CN[C@@H](C)C(=O)O; Nle = CCCC[C@H](N)C(=O)O; Octanoyl = CCCCCCCC(=O)*; Sar = CNCC(=O)O
T1: rat PrRP receptor in RC-4B/C cells (rat, UniProt Q64121 1-370)
T1 construct: whole, on cells; also called the rat receptor; GPR10
T1 sequence (looked up): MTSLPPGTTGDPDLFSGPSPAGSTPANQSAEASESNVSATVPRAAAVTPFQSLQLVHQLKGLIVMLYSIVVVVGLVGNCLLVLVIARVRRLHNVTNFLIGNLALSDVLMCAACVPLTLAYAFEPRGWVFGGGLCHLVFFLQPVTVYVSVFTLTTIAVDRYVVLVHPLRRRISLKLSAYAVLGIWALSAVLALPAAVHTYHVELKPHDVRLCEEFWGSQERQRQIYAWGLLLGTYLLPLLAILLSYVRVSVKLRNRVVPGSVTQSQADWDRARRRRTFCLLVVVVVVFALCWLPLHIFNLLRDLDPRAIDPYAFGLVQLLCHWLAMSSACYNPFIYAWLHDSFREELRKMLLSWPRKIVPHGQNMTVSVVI

T2: human PrRP receptor, GPR10, transfected in CHO cells (human, UniProt P49683 1-370)
T2 construct: whole, on cells; also called human GPR10 receptor; the human receptor GPR10 in CHO cells
T2 sequence (looked up): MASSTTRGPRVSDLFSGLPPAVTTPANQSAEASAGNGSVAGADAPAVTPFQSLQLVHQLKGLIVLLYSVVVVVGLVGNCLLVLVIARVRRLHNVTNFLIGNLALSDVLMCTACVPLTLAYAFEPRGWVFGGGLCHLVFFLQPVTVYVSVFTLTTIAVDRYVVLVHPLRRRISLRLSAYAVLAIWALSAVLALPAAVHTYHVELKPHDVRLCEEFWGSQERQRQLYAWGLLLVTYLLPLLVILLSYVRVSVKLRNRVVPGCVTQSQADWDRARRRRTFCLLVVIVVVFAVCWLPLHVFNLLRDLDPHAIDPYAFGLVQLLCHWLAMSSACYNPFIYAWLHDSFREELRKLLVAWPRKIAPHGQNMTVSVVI

B1: analog no. 38 (peptide)
peptide: TPDINPAWYTGR[Sar]IRPVGRF-NH2
modifications: N-terminus assumed
SMILES: CC[C@H](C)[C@H](NC(=O)CN(C)C(=O)[C@H](CCCNC(=N)N)NC(=O)CNC(=O)[C@@H](NC(=O)[C@H](Cc1ccc(O)cc1)NC(=O)[C@H](Cc1c[nH]c2ccccc12)NC(=O)[C@H](C)NC(=O)[C@@H]1CCCN1C(=O)[C@H](CC(N)=O)NC(=O)[C@@H](NC(=O)[C@H](CC(=O)O)NC(=O)[C@@H]1CCCN1C(=O)[C@@H](N)[C@@H](C)O)[C@@H](C)CC)[C@@H](C)O)C(=O)N[C@@H](CCCNC(=N)N)C(=O)N1CCC[C@H]1C(=O)N[C@H](C(=O)NCC(=O)N[C@@H](CCCNC(=N)N)C(=O)N[C@@H](Cc1ccccc1)C(N)=O)C(C)C
B2: analog no. 34 (peptide)
peptide: SRAHQHS[Nle]ETRTPDINPAWYTGRGIRPVGRY-NH2
modifications: N-terminus assumed
SMILES: CCCC[C@H](NC(=O)[C@H](CO)NC(=O)[C@H](Cc1c[nH]cn1)NC(=O)[C@H](CCC(N)=O)NC(=O)[C@H](Cc1c[nH]cn1)NC(=O)[C@H](C)NC(=O)[C@H](CCCNC(=N)N)NC(=O)[C@@H](N)CO)C(=O)N[C@@H](CCC(=O)O)C(=O)N[C@H](C(=O)N[C@@H](CCCNC(=N)N)C(=O)N[C@H](C(=O)N1CCC[C@H]1C(=O)N[C@@H](CC(=O)O)C(=O)N[C@H](C(=O)N[C@@H](CC(N)=O)C(=O)N1CCC[C@H]1C(=O)N[C@@H](C)C(=O)N[C@@H](Cc1c[nH]c2ccccc12)C(=O)N[C@@H](Cc1ccc(O)cc1)C(=O)N[C@H](C(=O)NCC(=O)N[C@@H](CCCNC(=N)N)C(=O)NCC(=O)N[C@H](C(=O)N[C@@H](CCCNC(=N)N)C(=O)N1CCC[C@H]1C(=O)N[C@H](C(=O)NCC(=O)N[C@@H](CCCNC(=N)N)C(=O)N[C@@H](Cc1ccc(O)cc1)C(N)=O)C(C)C)[C@@H](C)CC)[C@@H](C)O)[C@@H](C)CC)[C@@H](C)O)[C@@H](C)O
notes: Tyr at position 31 in place of Phe
B3: analog no. 35 (peptide)
peptide: Palmitoyl-SRAHQHS[Nle]ETRTPDINPAWYTGRGIRPVGRY-NH2
SMILES: CCCCCCCCCCCCCCCC(=O)N[C@@H](CO)C(=O)N[C@@H](CCCNC(=N)N)C(=O)N[C@@H](C)C(=O)N[C@@H](Cc1c[nH]cn1)C(=O)N[C@@H](CCC(N)=O)C(=O)N[C@@H](Cc1c[nH]cn1)C(=O)N[C@@H](CO)C(=O)N[C@@H](CCCC)C(=O)N[C@@H](CCC(=O)O)C(=O)N[C@H](C(=O)N[C@@H](CCCNC(=N)N)C(=O)N[C@H](C(=O)N1CCC[C@H]1C(=O)N[C@@H](CC(=O)O)C(=O)N[C@H](C(=O)N[C@@H](CC(N)=O)C(=O)N1CCC[C@H]1C(=O)N[C@@H](C)C(=O)N[C@@H](Cc1c[nH]c2ccccc12)C(=O)N[C@@H](Cc1ccc(O)cc1)C(=O)N[C@H](C(=O)NCC(=O)N[C@@H](CCCNC(=N)N)C(=O)NCC(=O)N[C@H](C(=O)N[C@@H](CCCNC(=N)N)C(=O)N1CCC[C@H]1C(=O)N[C@H](C(=O)NCC(=O)N[C@@H](CCCNC(=N)N)C(=O)N[C@@H](Cc1ccc(O)cc1)C(N)=O)C(C)C)[C@@H](C)CC)[C@@H](C)O)[C@@H](C)CC)[C@@H](C)O)[C@@H](C)O
notes: as for B2
B4: analog no. 41 (peptide)
peptide: Myristoyl-TPDINPAWY[NMeA]SRGIRPVGRF-NH2
SMILES: CCCCCCCCCCCCCC(=O)N[C@H](C(=O)N1CCC[C@H]1C(=O)N[C@@H](CC(=O)O)C(=O)N[C@H](C(=O)N[C@@H](CC(N)=O)C(=O)N1CCC[C@H]1C(=O)N[C@@H](C)C(=O)N[C@@H](Cc1c[nH]c2ccccc12)C(=O)N[C@@H](Cc1ccc(O)cc1)C(=O)N(C)[C@@H](C)C(=O)N[C@@H](CO)C(=O)N[C@@H](CCCNC(=N)N)C(=O)NCC(=O)N[C@H](C(=O)N[C@@H](CCCNC(=N)N)C(=O)N1CCC[C@H]1C(=O)N[C@H](C(=O)NCC(=O)N[C@@H](CCCNC(=N)N)C(=O)N[C@@H](Cc1ccccc1)C(N)=O)C(C)C)[C@@H](C)CC)[C@@H](C)CC)[C@@H](C)O
B5: analog no. 39 (peptide)
peptide: Myristoyl-TPDINPAWYTGR[Sar]IRPVGRF-NH2
SMILES: CCCCCCCCCCCCCC(=O)N[C@H](C(=O)N1CCC[C@H]1C(=O)N[C@@H](CC(=O)O)C(=O)N[C@H](C(=O)N[C@@H](CC(N)=O)C(=O)N1CCC[C@H]1C(=O)N[C@@H](C)C(=O)N[C@@H](Cc1c[nH]c2ccccc12)C(=O)N[C@@H](Cc1ccc(O)cc1)C(=O)N[C@H](C(=O)NCC(=O)N[C@@H](CCCNC(=N)N)C(=O)N(C)CC(=O)N[C@H](C(=O)N[C@@H](CCCNC(=N)N)C(=O)N1CCC[C@H]1C(=O)N[C@H](C(=O)NCC(=O)N[C@@H](CCCNC(=N)N)C(=O)N[C@@H](Cc1ccccc1)C(N)=O)C(C)C)[C@@H](C)CC)[C@@H](C)O)[C@@H](C)CC)[C@@H](C)O

What follows are binders tested against T1, rat PrRP receptor in RC-4B/C cells (assay: competition with 125I-rat PrRP31 on RC-4B/C cells).
Protocol: The rat pituitary cell line RC-4B/C (ATCC, Manassas, USA) was grown on 24-well plates which had their bottom coated with polyethyleneimine. The cells were grown to the optimal density of 300-450 thousand per well.
(§1) Plates were incubated for 60 minutes at room temperature. After incubation, the cells were solubilized in 0.1 mol/l solution of NaOH and the radioactivity bound to the cells was counted using a γ-counter. The experiments were performed in duplicate and repeated at least three times.
For evaluation of competitive binding experiments, the program Graph Pad Prism Software (San Diego, Calif., USA) was used. A method of nonlinear regression assuming one-site binding was used.

Ki [nM]	Binder
7.94	B1
1.3	Palmitoyl-SRAHQHS[Nle]ETRTPDINPAWYTGRGIRPVGR[PheCl2]-NH2 [analog no. 26]
3.84	SRAHQHS[Nle]ETRTPDINPAWYTGRGIRPVGR[PheCl2]-NH2 [analog no. 24]
0.65	Decanoyl-SRAHQHS[Nle]ETRTPDINPAWYTGRGIRPVGRF-NH2 [analog no. 16]
0.69	Myristoyl-SRAHQHS[Nle]ETRTPDINPAWYTGRGIRPVGRF-NH2 [analog no. 18]
5200	[code f][code r]GVPRIGRGTYWAPNIDPT-NH2 [analog no. 36]
1.97	Myristoyl-SRAHQHS[Nle]ETRTPDINPAWYTGRGIRPVGR[PheNO2]-NH2 [analog no. 28]
3.25	B2
0.44	B3
0.51	Palmitoyl-SRAHQHS[Nle]ETRTPDINPAWYTGRGIRPVGR[Phe(F5)]-NH2 [analog no. 33]
0.98	Octanoyl-SRAHQHS[Nle]ETRTPDINPAWYTGRGIRPVGRF-NH2 [analog no. 15]
0.96	Stearoyl-SRAHQHS[Nle]ETRTPDINPAWYTGRGIRPVGRF-NH2 [analog no. 20]
1.79	Myristoyl-SRAHQHS[Nle]ETRTPDINPAWYTGRGIRPVGR[PheCl2]-NH2 [analog no. 25]
19.9	SRAHQHS[Nle]ETRTPDINPAWYTGRGIRPVGR[PheNO2]-NH2 [analog no. 27]
0.58	Palmitoyl-SRAHQHS[Nle]ETRTPDINPAWYTGRGIRPVGR[PheNO2]-NH2 [analog no. 29]
9.69	SRAHQHS[Nle]ETRTPDINPAWYTGRGIRPVGR[Phe(F5)]-NH2 [analog no. 32]
123	Myristoyl-SHQRPADTHWYPRG[Nle]FPTIGRITARNGEVSR (printed without a C-terminal amide) [analog no. 31]
0.39	Lauroyl-SRAHQHS[Nle]ETRTPDINPAWYTGRGIRPVGRF-NH2 [analog no. 17]
0.51	Palmitoyl-SRAHQHS[Nle]ETRTPDINPAWYTGRGIRPVGRF-NH2 [analog no. 19]
0.46	B4
0.32	B5

What follows are binders tested against T2, human PrRP receptor, GPR10, transfected … (assay: competition with 125I-human PrRP31 on CHO cells with transfected human GPR10).
Protocol: CHO cells with transfected human PrRP receptor, GPR10 (Perkin Elmer, USA) were grown on 24-well plates coated with polyethyleneimine. The cells were grown to the optimal density of 40-80 thousand cells per well.
as §1

Ki [nM]	Binder
4.51	B1
1.05	Palmitoyl-SRAHQHS[Nle]ETRTPDINPAWYTGRGIRPVGR[PheCl2]-NH2 [analog no. 26]
2.27	SRAHQHS[Nle]ETRTPDINPAWYTGRGIRPVGR[PheCl2]-NH2 [analog no. 24]
1.46	Decanoyl-SRAHQHS[Nle]ETRTPDINPAWYTGRGIRPVGRF-NH2 [analog no. 16]
0.71	Myristoyl-SRAHQHS[Nle]ETRTPDINPAWYTGRGIRPVGRF-NH2 [analog no. 18]
6290	[code f][code r]GVPRIGRGTYWAPNIDPT-NH2 [analog no. 36]
1.59	Myristoyl-SRAHQHS[Nle]ETRTPDINPAWYTGRGIRPVGR[PheNO2]-NH2 [analog no. 28]
2.02	B2
1.57	B3
1.92	Palmitoyl-SRAHQHS[Nle]ETRTPDINPAWYTGRGIRPVGR[Phe(F5)]-NH2 [analog no. 33]
1.53	Octanoyl-SRAHQHS[Nle]ETRTPDINPAWYTGRGIRPVGRF-NH2 [analog no. 15]
5.39	Stearoyl-SRAHQHS[Nle]ETRTPDINPAWYTGRGIRPVGRF-NH2 [analog no. 20]
0.95	Myristoyl-SRAHQHS[Nle]ETRTPDINPAWYTGRGIRPVGR[PheCl2]-NH2 [analog no. 25]
4.8	SRAHQHS[Nle]ETRTPDINPAWYTGRGIRPVGR[PheNO2]-NH2 [analog no. 27]
0.77	Palmitoyl-SRAHQHS[Nle]ETRTPDINPAWYTGRGIRPVGR[PheNO2]-NH2 [analog no. 29]
8.59	SRAHQHS[Nle]ETRTPDINPAWYTGRGIRPVGR[Phe(F5)]-NH2 [analog no. 32]
262	Myristoyl-SHQRPADTHWYPRG[Nle]FPTIGRITARNGEVSR (printed without a C-terminal amide) [analog no. 31]
1.19	Lauroyl-SRAHQHS[Nle]ETRTPDINPAWYTGRGIRPVGRF-NH2 [analog no. 17]
3.03	Palmitoyl-SRAHQHS[Nle]ETRTPDINPAWYTGRGIRPVGRF-NH2 [analog no. 19]
2.1	B4
3.12	B5
